Test results published in patent EP0480381A1 (NIPPON CHEMIPHAR CO., LTD., dated 1992).

T1: rat endothelin receptor (rat)
T1 sequence (P26684 whole entry, looked up): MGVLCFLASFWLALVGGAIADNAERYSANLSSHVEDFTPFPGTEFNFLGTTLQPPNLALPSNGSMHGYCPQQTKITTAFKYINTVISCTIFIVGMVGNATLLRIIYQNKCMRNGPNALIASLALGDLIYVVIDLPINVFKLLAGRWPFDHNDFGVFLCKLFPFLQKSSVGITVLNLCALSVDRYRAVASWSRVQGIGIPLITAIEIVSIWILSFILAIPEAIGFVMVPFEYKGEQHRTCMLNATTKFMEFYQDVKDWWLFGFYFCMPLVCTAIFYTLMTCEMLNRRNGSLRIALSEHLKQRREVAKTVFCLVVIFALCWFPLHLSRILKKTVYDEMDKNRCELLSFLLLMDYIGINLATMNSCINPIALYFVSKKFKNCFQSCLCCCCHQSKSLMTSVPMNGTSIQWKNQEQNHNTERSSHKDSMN

B1: endothelin-3 (peptide, UniProt P14138 97-117, looked up)
peptide: CTCFTYKDKECVYYCHLDIIW
B2: endothelin-1 (peptide, UniProt P05305 53-73, looked up)
peptide: CSCSSLMDKECVYFCHLDIIW

Biological target: T1, rat endothelin receptor
Experiment: cell-based or functional assay

Binder	increase of calcium concentration in cytoplasm (fura-2), EC50
B1	~20 pM
B2	~20 pM
